Data on four molecules can be found in US20160046707A1 (EISAI R AND D MANAGEMENT, published 2016).

Substitutions are numbered along the chain they refer to.

The koff is the first-order rate constant of dissociation. A word on the kon: it is the rate constant with which the complex forms. A higher kon goes with fast association.

Sequences and labels used below:
T1: cynomolgus CCL20-secreted alkaline phosphatase (SEAP) fusion (cynomolgus monkey)
T1 construct: also called cCCL20; cynomolgus CCL20-SEAP; not shown: the SEAP reporter (cDNA from Clontech pSEAP-Enhancer) and its junction to CCL20
T1 chain: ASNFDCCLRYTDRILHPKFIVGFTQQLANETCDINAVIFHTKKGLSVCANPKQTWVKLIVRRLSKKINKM

T2: rhesus CCL20-secreted alkaline phosphatase (SEAP) fusion (rhesus monkey)
T2 construct: also called rCCL20; rhesus CCL20-SEAP; not shown: the SEAP reporter (cDNA from Clontech pSEAP-Enhancer) and its junction to CCL20
T2 chain: T1 chain with I38V

T3: recombinant human CXCL16 (human, UniProt Q9H2A7 30-118, limits assumed)
T3 sequence (looked up): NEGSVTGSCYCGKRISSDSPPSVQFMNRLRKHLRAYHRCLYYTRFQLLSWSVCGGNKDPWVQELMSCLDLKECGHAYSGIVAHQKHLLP

T4: recombinant human CCL19 (human, UniProt Q99731 22-98)
T4 construct: also called MIP-3b
T4 sequence (looked up): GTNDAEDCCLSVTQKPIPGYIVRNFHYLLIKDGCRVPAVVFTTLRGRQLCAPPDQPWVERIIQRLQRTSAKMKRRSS

T5: recombinant human CCL4 (human, UniProt P13236 24-92)
T5 construct: also called MIP-1β
T5 sequence (looked up): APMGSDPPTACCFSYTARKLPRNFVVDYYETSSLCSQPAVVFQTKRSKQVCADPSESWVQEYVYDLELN

T6: recombinant human CCL16 (human, UniProt O15467 24-120)
T6 construct: also called HCC-4
T6 sequence (looked up): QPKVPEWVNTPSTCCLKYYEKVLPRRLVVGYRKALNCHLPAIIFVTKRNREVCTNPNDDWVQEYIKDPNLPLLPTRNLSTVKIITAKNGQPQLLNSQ

B1: humanized anti-human CCL20 antibody 36LK3/36HC2 (antibody, human IgG1, kappa, V domains shown)
VH: QVQLVQSGAEVKKPGASVKVSCKASGYTFTNYWMHWVRQAPGQGLEWMGVIDPSDSYTTYAQKFQGRVTMTVDTSTSTVYMELSSLRSEDTAVYYCARGNYGVDYAMDYWGQGTLVTVSS
VL: DIQMTQSPSSLSASVGDRVTITCGASENIYGALNWYQRKPGKAPKLLIYGATNLADGVPSRFSGSGSGRDYTLTISSLQPEDFATYYCQNVLITPYTFGQGTKLEIKR
notes: expressed in HEK293 cells; also called HC2/LK3; HC2LK3
B2: humanized anti-human CCL20 antibody 36LC3/36HC2 (antibody, human IgG1, kappa, V domains shown)
VH: B1 VH
VL: B1 VL with G24R, R38Q, D70Q, T72S, Q100G
notes: expressed in HEK293 cells; also called HC2/LC3; HC2LC3
B3: chimeric 36F7C10 antibody (36F7C10-hFc) (antibody, V domains shown)
VH: QVQLQQPGAELVKPGASVKMSCKASGYTFTNYWMHWVKQRPGQGLEWIGVIDPSDSYTTYNQKFKGKATLTVDTSSSTAYMQLSSLTSEDSAVYYCTRGNYGVDYAMDYWGQGTSVTVSS
VL: DIQMTQSPASLSASVGETVTITCGASENIYGALNWYQRKQGKSPQLLIYGATNLADGMSSRFSGSGSGRQYSLKISSLHPDDVATYYCQNVLITPYTFGGGTKLEIK
notes: also called chimeric 36F710; Chimeric MAb
B4: mouse anti-human CCL20 monoclonal antibody 36F7C10 (antibody, V domains shown)
VH: B3 VH
VL: B3 VL
notes: Mouse hybridoma antibody; also called MouseMAb; parental mouse clone 36F7C10

In the first experiment the target is T7, human CCL20-secreted alkaline phosphatase (SEAP) fusion (human, UniProt P78556 27-96).
T7 construct: also called hCCL20; human CCL20-SEAP; not shown: secreted alkaline phosphatase (SEAP), cDNA from pSEAP-Enhancer vector (Clontech)
T7 sequence (P78556 27-96): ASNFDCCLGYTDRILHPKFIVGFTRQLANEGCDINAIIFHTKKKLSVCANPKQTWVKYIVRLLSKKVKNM
Kind of experiment: SPR (Biacore), CCL20-SEAP captured by anti-SEAP, antibody injected (bivalent format), 1:1 Langmuir. As to the method:
(§1) We also used surface plasmon resonance (Biacore™) analysis to test whether HC2/LC3 and HC2/LK3 can bind to mouse, cynomolgus, or rhesus macaque CCL20 orthologs. Monoclonal mouse anti-human placental alkaline phosphatase was immobilized on all four flow cells of a CM5 chip at a flow rate of 25 μl/min. 25 μl of a 2 nM solution of human, rhesus, cynomolgus, or mouse CCL20-SEAP in HBS-EP buffer was injected over flow cell 2, 3, or 4. For antibody binding, 240 μl of 0-80 nM dilutions of HC2/LC3, HC2/LK3, or 2F5-5 MAb in HBS-EP buffer (or buffer alone) was injected over all four flow cells at a flow rate of 50 μl/min. Dissociation followed for 45 min. Flow cell 1 (anti-SEAP alone) was used as a reference for all flow cells. Regeneration of the flow cells was performed with 10 mM glycine at pH 2.25. Due to regeneration effects on the capturing capacity of the chips, antibody injections were performed sequentially from low to high concentration. Data fitting was performed using a 1:1 Langmuir model.
(§2) In contrast, chimeric, HC2/LC3, and HC2/LK3 antibodies effectively bound to human, rhesus, and cynomolgus CCL20 (Table 17).
(Surface plasmon resonance follows binding to a sensor surface in real time, without labels.)
In the case of B1, the Kd was determined as 11.8 pM, the off-rate (koff) worked out at 3.39e-05 s⁻¹ and the on-rate constant (kon) came to 2.88e+06 M⁻¹ s⁻¹.
The corresponding values for B2 are 4.71 pM, 2.68e-05 s⁻¹ and 5.69e+06 M⁻¹ s⁻¹.
In the case of B3, the Kd is 7.16 pM, the koff came to 2.08e-05 s⁻¹ and the kon came to 2.9e+06 M⁻¹ s⁻¹.

Another experiment deals with T1, cynomolgus CCL20-secreted alkaline …. Described as above. As for the experimental part:
as §1, §2
Molecule B1 yielded a Kd of 28.3 pM, a koff of 0.000149 s⁻¹ and an association rate constant (kon) of 5.28e+06 M⁻¹ s⁻¹.
The corresponding values for B2 are 15.5 pM, 0.000134 s⁻¹ and 8.64e+06 M⁻¹ s⁻¹.
The like results for B3 were, in that order, 13.2 pM, 5.04e-05 s⁻¹ and 3.83e+06 M⁻¹ s⁻¹.

In another experiment the target is T2, rhesus CCL20-secreted alkaline …. The experiment is described as above. As for the experimental part:
as §1, §2
As for B1, the Kd came to 31.2 pM, the koff was determined as 8.21e-05 s⁻¹ and the kon was 2.63e+06 M⁻¹ s⁻¹.
The corresponding values for B2 are 18.2 pM, 7.51e-05 s⁻¹ and 4.13e+06 M⁻¹ s⁻¹.
The corresponding values for B3 are 6.05 pM, 1.78e-05 s⁻¹ and 2.94e+06 M⁻¹ s⁻¹.

For a further experiment, the target named is T3, recombinant human CXCL16. Kind of experiment: ELISA, plate-bound chemokine (1 ug/ml), antibody 10 ug/ml, OD450. As for the experimental part: (§3) The wells of a 96-well plate were coated with 1 μg/ml of the recombinant human chemokines in PBS (−). After overnight incubation at 4° C., the wells were blocked with 1× Block-Ace (Dainippon Sumitomo Pharma, UK-B80) for 1 hour at room temperature. After washing twice with 0.02% Tween 20/PBS (−), we added 50 μl of 10 μg/ml purified 36F7C10, chimeric 36F710, HC2/LK3, or HC2/LC3 in 0.02% Tween 20/PBS (−) to each well. The wells were incubated for 1 hour at room temperature and washed three times as described in Example 3. […] After washing five times, a TMBZ (3,3′,5,5′-tetramethylbenzidine) solution (1%, in N,N-Dimethylformamide) was added to the wells and incubated for 15-30 minutes. The reaction was stopped by adding an equal volume of a 2 M H₂SO₄ stopping solution, and the optical density was read at 450 nm by ARVO (PerkinElmer).
(An ELISA detects its analyte on a solid surface through an enzyme-linked reagent.)
Turning to B1, the binding result is recorded as “no binding (tested: 10 ug/ml)”.
On the same count and under the same terms, to B2 belongs “no binding (tested: 10 ug/ml)”; to B4, “no binding (tested: 10 ug/ml)”; to B3, “no binding (tested: 10 ug/ml)”.

A further experiment deals with T4, recombinant human CCL19. The description is as above. As to the method:
as §3
For the molecule B1, the binding result is on record as “no binding (tested: 10 ug/ml)”.
Same read-out and setting: as for B2, the entry is “no binding (tested: 10 ug/ml)”.
Same read-out and setting: to B4 belongs “no binding (tested: 10 ug/ml)”; to B3, “no binding (tested: 10 ug/ml)”.

In the next experiment the target is T5, recombinant human CCL4. The experiment is described as above. As for the experimental part:
as §3
Take B1: the binding result is on record as “no binding (tested: 10 ug/ml)”.
Same read-out and setting: to B2 belongs “no binding (tested: 10 ug/ml)”.
B4: the binding result is recorded as “no binding (tested: 10 ug/ml)”.
On the same count and under the same terms, as for B3, the entry is “no binding (tested: 10 ug/ml)”.

Another experiment concerns the target T6, recombinant human CCL16. Kind of experiment: SPR (Biacore): antibody captured on anti-human Fc, 100 nM chemokine injected; ratio = chemokine binding level over antibody capture level. As to the method: We used Biacore™ analysis to test whether HC2/LK3 and HC2/LC3 cross-react with CCL16. Monoclonal mouse anti-human Fc was immobilized on all four flow cells of a CM5 chip at a flow rate of 25 μl/min with HBS-EP buffer containing 0.2 mg/mL BSA. Subsequently, 50 μl of a 1 μg/ml solution of chimeric, HC2/LC3, or HC2/LK3 antibody in HBS-EP buffer with 0.2 mg/ml BSA was injected over flow cells 2, 3, and 4, respectively. 150 μl of a 100 nM solution of CCL20 or CCL16 in HBS-EP buffer (or buffer alone) with 0.2 mg/ml BSA was then injected over all four flow cells at a flow rate of 40 μl/min. Dissociation followed for 20 min. Flow cell 1 (anti-human Fc antibody alone) was used as a reference for all flow cells.
Under these conditions, human CCL20 bound to the chimeric (FIG. 13A), HC2/LC3 (FIG. 13B), and HC2/LK3 (FIG. 13B) antibodies captured on the chip with similar strength.
B1: the ReqCk/ReqAb ratio amounted to 0.006.
The same measure, in the same setting: to B2 belongs 0.005; to B3, 0.006.

A further experiment addresses T1, cynomolgus CCL20-secreted alkaline …. Kind of experiment: SPR (Biacore), bivalent format, KD ratio against human CCL20 (Table 17). As to the method: as §1, §2
Consider B1, for which the “fold higher KD than for human CCL20” value was about 3 fold.
Still for that read-out and setting: to B2 belongs about 3 fold; to B3, about 3 fold.

For the next experiment, the target named is T2, rhesus CCL20-secreted alkaline …. Described as above. As for the experimental part: as §1, §2
B1: the “fold higher KD than for human CCL20” value was about 3 fold.
Still for that read-out and setting: to B2 belongs about 3 fold; to B3, about 3 fold.
